The target in series [1] is Clr-11-FcHis fusion protein (Clr-11^WAG in pHLsec-FcHis, uncleaved) (rat (WAG strain) | human) (UniProt Q0H8B9). Put plainly: SEC; gel filtration on Superdex 200 HR 10/30, room temperature.
For series [2] the target is unchanged. Put plainly: AUC; sedimentation velocity, 0.2 mg/ml, 48000 rpm, 20 °C, 10 mM HEPES pH 7.0, 150 mM NaCl, 10 mM NaN3, c(s) model.
The target in series [3] is Clr-11^WAG V65-M207, histidine-tagged, expressed from pHLsec (rat (WAG strain)) (UniProt Q0H8B9). Put plainly: SEC; gel filtration on Superdex 200 HR 10/30, room temperature. On the technique in general: In gel filtration, larger molecules generally elute earlier.
Series [4] shares this target. Put plainly: AUC; sedimentation equilibrium, 0.1 mg/ml, 12-15-18-21-24000 rpm, 4 °C, non-interacting discrete species model.
Series [5] has the same target. As to the kind of experiment: AUC; sedimentation velocity, 0.2 mg/ml, 48000 rpm, 20 °C, 10 mM HEPES pH 7.0, 150 mM NaCl, 10 mM NaN3, c(s) model.
Series [6] has the same target. As to the kind of experiment: non-reducing SDS-PAGE with Western blot; small-scale expression test; 10 ul of culture supernatant 3 days after transfection, 15% SDS-PAGE under non-reducing conditions, detected by PentaHis mAb; shows covalent dimers.
In series [7] the target is Clr-11^WAG cleaved from the pHLsec-FcHis fusion by HRV 3C protease (rat (WAG strain)) (UniProt Q0H8B9). As to the kind of experiment: SEC; gel filtration on Superdex 200 HR 10/30, room temperature.
Series [8] has the same target. Put plainly: AUC; sedimentation velocity, 0.2 mg/ml, 48000 rpm, 20 °C, 10 mM HEPES pH 7.0, 150 mM NaCl, 10 mM NaN3, c(s) model.
Series [9] deals with NKR-P1B^SD C-terminal FcHis fusion protein (pHLsec-FcHis, uncleaved) (rat (SD strain) | human) (UniProt A4KWA1). As to the kind of experiment: not stated; data not shown; purified C-terminal FcHis fusion proteins.
For series [10], the target named is NKR-P1B^WAG C-terminal FcHis fusion protein (pHLsec-FcHis, uncleaved) (rat (WAG strain) | human) (UniProt Q5NKN4). The series is described as above.
Series [11] addresses pYD5 Fc-NKR-P1B^SD fusion protein (uncleaved) (human | rat (SD strain)) (UniProt A4KWA1). Put plainly: SEC; gel filtration on Superdex 200 HR 10/30, room temperature.
The target is the same in series [12]. Put plainly: AUC; sedimentation velocity, 0.2 mg/ml, 48000 rpm, 20 °C, 10 mM HEPES pH 7.0, 150 mM NaCl, 10 mM NaN3, c(s) model.
For series [13], the target named is pYD5 Fc-NKR-P1B^WAG fusion protein (uncleaved) (human | rat (WAG strain)) (UniProt Q5NKN4). Put plainly: SEC; gel filtration on Superdex 200 HR 10/30, room temperature.
Series [14] has the same target. Put plainly: AUC; sedimentation velocity, 0.2 mg/ml, 48000 rpm, 20 °C, 10 mM HEPES pH 7.0, 150 mM NaCl, 10 mM NaN3, c(s) model.
Series [15] deals with the molecule itself. As to the kind of experiment: SEC + other: non-reducing SDS-PAGE; gel filtration on Superdex 200 HR 10/30 after TEV cleavage, and 4-20% SDS-PAGE under reducing and non-reducing conditions.
Series [16] concerns the molecule itself. As to the kind of experiment: non-reducing SDS-PAGE with Western blot; small-scale expression test; 10 ul of culture supernatant 3 days after transfection, 15% SDS-PAGE under non-reducing conditions, detected by PentaHis mAb; shows covalent dimers. For orientation: In western blotting, separated proteins are transferred to a membrane and probed.

As a reminder, the stoichiometry N is a count of units in the complex or per binding partner.

Regarding “Clr-11-FcHis fusion protein (Clr-11^WAG in pHLsec-FcHis, uncleaved) (from UniProt Q0H8B9 65-207) (Fc fusion)”, the stoichiometry N in series [1] and in series [2] was 2 in each case. “Clr-11^WAG V65-M207, histidine-tagged, expressed from pHLsec (from UniProt Q0H8B9 65-207) (domain or fragment)”: the stoichiometry N in series [3], in series [4], in series [5] and in series [6] was 2 throughout. As for “Clr-11^WAG cleaved from the pHLsec-FcHis fusion by HRV 3C protease (from UniProt Q0H8B9 65-207) (domain or fragment)”, the stoichiometry N in series [7] and in series [8] was 2 throughout. Take “NKR-P1B^SD C-terminal FcHis fusion protein (pHLsec-FcHis, uncleaved) (from UniProt A4KWA1 78-223) (Fc fusion)”: the stoichiometry N in series [9] was 2. The molecule “NKR-P1B^WAG C-terminal FcHis fusion protein (pHLsec-FcHis, uncleaved) (from UniProt Q5NKN4 78-223) (Fc fusion)” yielded a stoichiometry N in series [10] of 2. On to “pYD5 Fc-NKR-P1B^SD fusion protein (uncleaved) (from UniProt A4KWA1 78-223) (Fc fusion)”, for which the stoichiometry N in series [11] and in series [12] was 2 each time.

Take “pYD5 Fc-NKR-P1B^WAG fusion protein (uncleaved) (from UniProt Q5NKN4 78-223) (Fc fusion)”: the stoichiometry N in [13] and in series [14] was 2 in each case.

B1: NKR-P1B^WAG ectodomain cleaved from the pYD5 Fc fusion by TEV protease (domain or fragment, rat (WAG strain), UniProt Q5NKN4 78-223, looked up)
chain: VQENRTKTTDSPTKLKCPKDWHSHQDKCFHVSQAPNTWNKSLADCGGKGATLLLIQDQEELRFLRNLTKGKDRSFWIGLNYTLPDKNWKWINSSTLNSDVLSIFGDTKQNSCASISQDKVLSESCDSDNLWICQKELKCECMCNGS
notes: rat NKR-P1B of the WAG strain, ectodomain construct V78-S223; Disulphide dimer; also called pYD5_NKR-P1B^WAG cleaved off by TEV protease; not shown: Fc (human IgG), N-terminal, cleaved
B1: the “stoichiometry N” value in series [15] came to 2.

B2: NKR-P1B^SD ectodomain cleaved from the pYD5 Fc fusion by TEV protease (domain or fragment, rat (SD strain), UniProt A4KWA1 78-223, looked up)
chain: VQENRTKTTDSPAKLKCPKDWHSHQDKCFHVSQTSITWKGSLADCGGKGATLLLVQDQEELRFLRNLTKRISSSFWIGLSYTLSDEKWKWINGSTLNSDALNITGDTEKDSCASVSQDKVLSESCDSDNIWICQKELKRESTCNDS
notes: rat NKR-P1B of the SD strain, ectodomain construct V78-S223; Obtained as a separable mixture of monomer and covalent dimer; also called pYD5_NKR-P1B^SD (monomeric and dimeric fractions); not shown: Fc (human IgG), N-terminal, cleaved
Take B2: the “stoichiometry N” value in [15] came out at 2.

B3: NKR-P1B^WAG V78-S223, histidine-tagged, expressed from pHLsec (domain or fragment, rat (WAG strain))
chain: ETGVQENRTKTTDSPTKLKCPKDWHSHQDKCFHVSQAPNTWNKSLADCGGKGATLLLIQDQEELRFLRNLTKGKDRSFWIGLNYTLPDKNWKWINSSTLNSDVLSIFGDTKQNSCASISQDKVLSESCDSDNLWICQKELKCECMCNGS
notes: residues that the pHLsec vector adds to the N-terminus of the construct; rat NKR-P1B of the WAG strain, extracellular part with slightly shortened N-terminus, V78-S223; source: suspension-adapted HEK293T, transiently transfected, secreted, culture supernatant
Regarding B3, the “stoichiometry N” value in series [16] was found to be 2.
